What all share (test): BLI; Octet RED96; client biotinylated and loaded on streptavidin sensors; Spy or Spy variant in solution at 0.25, 0.5, 1, 1.5 and 2 μM; 40 mM HEPES, 150 mM NaCl, pH 7.5; Kd calculated as koff/kon
Holding throughout (settings): both partners purified

In experiment [1] the target is T1, Spy D26R (UniProt P77754 24-161, D26R).
T1 construct: source: E. coli BL21 (DE3), purified (Ni-NTA, cation exchange, SEC); not shown: His6, N-terminal, cleaved; SUMO, N-terminal, cleaved
T1 sequence (looked up): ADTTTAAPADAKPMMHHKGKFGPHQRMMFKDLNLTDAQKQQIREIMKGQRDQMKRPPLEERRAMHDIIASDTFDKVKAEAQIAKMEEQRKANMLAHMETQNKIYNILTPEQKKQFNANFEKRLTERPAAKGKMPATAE

Experiment [2] addresses T2, Spy D26K (UniProt P77754 24-161, D26K).
T2 construct: source: E. coli BL21 (DE3), purified (Ni-NTA, cation exchange, SEC); not shown: His6, N-terminal, cleaved; SUMO, N-terminal, cleaved
T2 sequence (looked up): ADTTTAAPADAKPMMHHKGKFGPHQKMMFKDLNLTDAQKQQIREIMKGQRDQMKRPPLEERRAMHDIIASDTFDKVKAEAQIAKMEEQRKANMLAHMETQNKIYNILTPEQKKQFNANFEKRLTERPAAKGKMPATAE

The target of experiment [3] is T3, Spy D26E (UniProt P77754 24-161, D26E).
T3 construct: source: E. coli BL21 (DE3), purified (Ni-NTA, cation exchange, SEC); not shown: His6, N-terminal, cleaved; SUMO, N-terminal, cleaved
T3 sequence (looked up): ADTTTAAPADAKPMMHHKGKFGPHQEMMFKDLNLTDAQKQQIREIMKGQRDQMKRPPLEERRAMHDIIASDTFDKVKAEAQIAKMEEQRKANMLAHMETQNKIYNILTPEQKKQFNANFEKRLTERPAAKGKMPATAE

Experiment [4] has as its target T4, Spy D26A (UniProt P77754 24-161, D26A).
T4 construct: source: E. coli BL21 (DE3), purified (Ni-NTA, cation exchange, SEC); not shown: His6, N-terminal, cleaved; SUMO, N-terminal, cleaved
T4 sequence (looked up): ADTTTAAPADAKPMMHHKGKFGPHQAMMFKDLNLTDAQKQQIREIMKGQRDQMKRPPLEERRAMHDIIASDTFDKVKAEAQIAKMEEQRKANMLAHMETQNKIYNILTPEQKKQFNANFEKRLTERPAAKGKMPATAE

The target in experiment [5] is T1, Spy D26R. This is another data set of the same source.
Experiment [6] concerns the target T2, Spy D26K. This is another data set of the same source.
Experiment [7] has as its target T3, Spy D26E. This is another data set of the same source.
For experiment [8], the target named is T4, Spy D26A. The source holds these as a separate data set.
The target of a further experiment is T5, Spy_(D26K K54D R55D) (UniProt P77754 24-161, D26K | K54D | R55D).
T5 construct: source: E. coli BL21 (DE3), purified (Ni-NTA, cation exchange, SEC); not shown: His6, N-terminal, cleaved; SUMO, N-terminal, cleaved
T5 sequence (looked up): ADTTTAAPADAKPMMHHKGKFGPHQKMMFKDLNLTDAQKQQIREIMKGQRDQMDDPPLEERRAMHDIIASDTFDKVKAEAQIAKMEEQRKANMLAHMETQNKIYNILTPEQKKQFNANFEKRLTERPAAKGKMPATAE
The method in brief:
(§1)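 Association was recorded with an Octet RED96 as streptavidin sensors carrying client proteins, biotinylated with EZ-link NHS-biotin at a 1:1 molar ratio, sat in 40 mM HEPES, 150 mM NaCl, pH 7.5 with 0.25 to 2 μM of the analyte protein (0.25, 0.5, 1, 1.5 and 2 μM). Dissociation followed after transfer to analyte-free buffer. Both wavelength-shift phases were fitted in SigmaPlot 12.0 to obtain koff and the observed association rate, whose dependence on analyte concentration yielded kon, with Kd defined as koff divided by kon.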

The target in another experiment is T6, Spy D26K R43D (UniProt P77754 24-161, D26K | R43D).
T6 construct: source: E. coli BL21 (DE3), purified (Ni-NTA, cation exchange, SEC); not shown: His6, N-terminal, cleaved; SUMO, N-terminal, cleaved
T6 sequence (looked up): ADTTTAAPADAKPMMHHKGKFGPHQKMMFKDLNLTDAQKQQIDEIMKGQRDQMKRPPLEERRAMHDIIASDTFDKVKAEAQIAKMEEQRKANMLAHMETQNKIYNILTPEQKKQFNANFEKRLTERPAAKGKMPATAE
The method, boiled down:
as §1

kon, Kd and koff data for one molecule are collected here from paper PMC9122904, “Insights into the client protein release mechanism of the ATP-independent chaperone Spy” (Nature Communications, 2022).

B1: Im7 H40W L53A I54A (natural protein)
chain: MELKNSISDYTEAEFVQLLKEIEKENVAATDDVLDVLLEWFVKITEHPDGTDAAYYPSDNRDDSPEGIVKEIKEWRAANGKPGFKQG
modifications: biotin (EZ-link NHS-biotin, 1:1 molar ratio of biotin to protein)
notes: Im7 (colicin E7 immunity protein) with H40W L53A I54A; Spy was made with an N-terminal His6-SUMO tag that was cleaved; also called Im7AAW; partially folded client; source: purified by a similar procedure to Spy
What is called kon is the second-order rate constant of association. One may read the Kd as the constant that tells how readily two partners part at equilibrium. One may read the koff as the rate constant with which the complex falls apart. Consider B1, for which the kon is 287000 M⁻¹ s⁻¹ with Spy D26R [1], 317000 M⁻¹ s⁻¹ with Spy D26K [2], 306000 M⁻¹ s⁻¹ in the experiment with Spy D26E [3] and 322000 M⁻¹ s⁻¹ with Spy D26A [4]. The Kd with Spy D26R [5] was 286 nM; in the experiment with Spy D26K [6], 257 nM; with Spy D26E [7] it was 637 nM; with Spy D26A [8] it was 274 nM. Further, the koff with Spy_(D26K K54D R55D) was 0.425 s⁻¹; with Spy D26K R43D, 0.202 s⁻¹.
